Experimental data published in publication PMC3510032.
Each block holds one molecule with its values, some of them ahead of it.

Legend:
[1] = molecular target: GST-Shep isoform B/D (Drosophila (Oregon R)); assay: pull-down; 2 µg GST or GST fusion protein immobilised on Glutathione-Agarose, 35 µg soluble His-Mod(mdg4)2.2 in 350 µL PBSMT (137 mM NaCl, 250 mM MgCl2, 0.3% Triton X-100, 1 mM DTT, 100 mg/mL BSA), 4°C, 2 h, 5 washes; bound protein detected by Western blotting
[2] = molecular target: GST-Shep isoform A (Drosophila (Oregon R)); assay: as above
[3] = molecular target: GST-Shep isoform E (Drosophila (Oregon R)); assay: as above
[4] = molecular target: Shep (endogenous, embryo nuclear extract) (Drosophila (endogenous in embryos)) (UniProt Q8MSV2); assay: co-IP; embryo nuclear extracts in HBSMT, α-Shep or pre-immune serum pre-conjugated to protein A sepharose, 1 h at 4°C; Western blotting
[5] = molecular target: GST-Shep isoform B/D (Drosophila (Oregon R)); assay: pull-down; GST or GST fusion protein immobilised on Glutathione-Agarose, soluble His-Su(Hw) in HBSM (50 mM HEPES pH 6.7, 150 mM NaCl, 5 mM KCl, 2.5 mM MgCl2) with 0.3% Triton-X 100, 0.2 M KCl, 1 mM DTT, 100 mg/mL BSA, 4°C, 2 h; bound protein detected by Western blotting
[6] = molecular target: GST-Shep isoform A (Drosophila (Oregon R)); assay: as above
[7] = molecular target: GST-Shep isoform E (Drosophila (Oregon R)); assay: as above

stoichiometry N [1]: 1 molar ratio
stoichiometry N [2]: 1 molar ratio
stoichiometry N [3]: 1 molar ratio
Molecule: His-Mod(mdg4)2.2 (natural protein)

percent of total recovered in the IP [4]: 0.1%
Molecule: Mod(mdg4)2.2 (endogenous, embryo nuclear extract) (natural protein)

stoichiometry N [5]: 1 molar ratio
stoichiometry N [6]: 1 molar ratio
stoichiometry N [7]: 1 molar ratio
B1: His-Su(Hw) (natural protein)
chain: MSASKEGKEKKGKLLGVENISPPKDKRPATRMKLLNDVGAGEDSEASTTTTTSRTPSNKQEKRGSVAGSRIKILNEEILGTPKTEKRGATKSTAPAASTVKILNEKKTPSATVTAVETTKIKTSPSKRKKMEHYVLQAVKSENTKADTTVTVVTEEDDTIDFILADDEEVVPGRIENNNGQEIVVTEDDEDLGEDGDEDGEDSSGKGNSSQTKIKEIVEHVCGKCYKTFRRVQSLKKHLEFCRYDSGYHLRKADMLKNLEKIEKDAVVMEKKDICFCCSESYDTFHLGHINCPDCPKSFKTQTSYERHIFITHSEFSDFPCSICNANLRSEALLALHEEQHKSRGKPYACKICGKDFTRSYHLKRHQKYSSCSSNETDTMSCKVCDRVFYRLDNLRSHLKQHLGTQVVKKPEYMCHTCKNCFYSLSTLNIHIRTHTGEKPFDCDLCDKKFSALVALKKHRRYHTGEKPYSCTVCNQAFAVKEVLNRHMKRHTGERPHKCDECGKSFIQATQLRTHSKTHIRPFPCEQCDEKFKTEKQLERHVKTHSRTKRPVFSCAECKRNFRTPALLKEHMDEGKHSPKQQRSSMRSAVKIMERTDCAICDKNFDSSDTLRRHIRTVHECDPDDIFGVEPHPSKRAKKDIESEEVVPVALNTSAGSLISSQTDGNGVVVREFLVDEGDGAAQTITLENETYTILPLDGAIEGEQLTDEAGVKPEAKKEEAQVSPVVKKEQRKSLAASLAAAIADNLEESCSEDDFSGEILTEEDIKLKENVGKLIDMLVDPPILKKYGWPNAPEETVLCKVIENCGHDLTKGGENYAELDYGSRMREYCKLLFTVVIHNDSIKSLLNNFPIDDVIEYVLGDEDQDEGGLDKDNESHSGDEEAVSVTGETKTNEIREKPEKKEVSAKSEKKEIVGKAVDKDNSEEVVRENKKKPVGEQEKA
